From doi:10.1101/798769 (bioRxiv, 2019) come the findings set out here.

In assay [1] the target is T1, DND3 peptide (Plasmodium falciparum).
T1 chain: NVDPNANPNVDP
Briefly: ITC. (In general: Isothermal titration calorimetry measures the heat released or taken up as one component is titrated into another.)

The target of assay [2] is T2, NDN3 peptide (Plasmodium falciparum).
T2 chain: NANPNVDPNANP
In words: ITC.

Assay [3] addresses T3, NANP trimer peptide (NANP3) (Plasmodium falciparum).
T3 chain: NANPNANPNANP
In words: ITC.

Assay [4] has as its target T4, NANP 5.5-mer peptide, NP(NANP)5 (Plasmodium falciparum).
T4 chain: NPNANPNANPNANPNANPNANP
In words: SPR.

Assay [5] has as its target NVDP peptide (PfCSP aa 109-125) (Plasmodium falciparum NF54, UniProt P19597). In words: SPR. (In SPR one partner is held on a chip, and binding of the other changes the refractive index at the surface.)
Assay [6] deals with T5, NPDP peptide (PfCSP aa 101-116) (Plasmodium falciparum NF54).
T5 chain: NPDPNANPNVDPNANP
Briefly: SPR.

The target of assay [7] is complete C-terminus of PfCSP (C-CSP) (Plasmodium falciparum NF54, UniProt P19597). Briefly: SPR.
The target in assay [8] is T6, KQPA peptide (PfCSP aa 95-109) (Plasmodium falciparum NF54).
T6 chain: KQPADGNPDPNANPN
Briefly: SPR.

For assay [9], the target named is T7, NANP pentamer peptide (NANP5) (Plasmodium falciparum (NF54)).
T7 chain: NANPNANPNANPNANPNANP
In words: crystal structure.

Sequence of NVDP peptide (PfCSP aa 109-125) (P19597 109-128): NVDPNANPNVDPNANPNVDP

B1: Fab fragment of mAb 4498 (Fab, V domains shown)
VH: QVQLVESGGGVVQPGRSLRLSCAASGFTFSIYGMHWVRQAPGKGLEWVALIWYDGTNKYYTDSVKGRFTISRDNSKNTLFLQMNSVRAEDTAVYYCARDAHYSDSSGYSSWGYFDYWGQGSLVTVSS
VL: EIVLTQSPATLSLSPGERATLSCRASQSVSSYLAWYQQKPGQAPRLLIFDASIRATGIPARFSGSGSGTDFTLTISSLEPEDFAVYYCQQRSNWYTFGQGTKLEIK
Turning to B1, the binding result in assay [1], in assay [2] and in [3] was “binds” in each case.

B2: mAb 4498 (recombinant human IgG1, kappa) (antibody, V domains shown)
VH: B1 VH
VL: B1 VL
Consider B2, for which the binding result in assay [4], in assay [5] and in assay [6] was “binds” each time.

B3: mAb 3246 (recombinant human IgG1, kappa) (antibody, V domains shown)
VH: QVQLVESGGGVVQPGRSLRLSCAASGFTFSGSGMHWVRQAPGKGLEWVAIIWYDGSNKFYADSVKGRFTISRDNSKNTLYLQMNSLRGEDTAVYYCARVGDGDGNYMDVWGKGTTVTVSS
VL: not shown
For the molecule B3, in assay [7], the binding result is “binds”.

B4: mAb 2541 (recombinant human IgG1, kappa) (antibody, V domains shown)
VH: QVQLVESGGGVVQPGRSLRLSCAASGFTFSSYGMHWVRQTTGKGLEWVAIIWHDGSKKYYADSVKGRLTISRDNSKNTLYLQMNSLRVEDTALYYCARVGDYSDFKYGAFDIWGQGTMVTVSS
VL: DIQMTQSPSTLSASVGDRVTITCRASQSISSWLAWYQQKPGKAPNLLIYKASTLESGVPSRFSGSGSGTEFTLTISSLQPDDFATYYCQQYNSYWTFGQGTRVEIK
In the case of B4, the binding result in [4], in assay [8] and in [6] was “binds” throughout.

B5: Fab fragment of mAb 2541 (Fab, V domains shown)
VH: B4 VH
VL: B4 VL
As for B5, the binding result in [9] was “binds”; in [2], “no binding”; in assay [3] it was “binds”.
